*1 amine or outer side, *2 acyl side, *3 side chain or, on linkers, in order; H or OH if unused. Cysteamide = C(CS[*:3])N[*:1]
How the values were obtained:
[1] = biological target: the molecule itself; assay: intrinsic tryptophan fluorescence against peptide concentration
[2] = biological target: T1, Pep-B, 51-mer peptide derived from human Cdc25C dual-specificity phosphatase; assay: intrinsic Trp fluorescence titration of 1 µM Pep-2
T1 construct: also called peptide B

[3] = biological target: T2, 119 kDa b-galactosidase (β-gal) (UniProt P00722 2-1024 = β-galactosidase); assay: intrinsic Trp fluorescence titration of 1 µM Pep-2
T2 construct: also called beta-gal; β-galactosidase

[4] = biological target: T3, Pep-A, 32-mer peptide derived from HIV-1 reverse transcriptase; assay: intrinsic Trp fluorescence titration of 1 µM Pep-2
T3 construct: also called peptide A

[5] = biological target: T1, Pep-B, 51-mer peptide derived from …; assay: intrinsic Trp fluorescence of Pep-2 on binding
[6] = biological target: T2, 119 kDa b-galactosidase (β-gal); assay: intrinsic Trp fluorescence of Pep-2 on binding
[7] = biological target: T3, Pep-A, 32-mer peptide derived from …; assay: intrinsic Trp fluorescence of Pep-2 on binding

T2 sequence (P00722 2-1024 limits assumed): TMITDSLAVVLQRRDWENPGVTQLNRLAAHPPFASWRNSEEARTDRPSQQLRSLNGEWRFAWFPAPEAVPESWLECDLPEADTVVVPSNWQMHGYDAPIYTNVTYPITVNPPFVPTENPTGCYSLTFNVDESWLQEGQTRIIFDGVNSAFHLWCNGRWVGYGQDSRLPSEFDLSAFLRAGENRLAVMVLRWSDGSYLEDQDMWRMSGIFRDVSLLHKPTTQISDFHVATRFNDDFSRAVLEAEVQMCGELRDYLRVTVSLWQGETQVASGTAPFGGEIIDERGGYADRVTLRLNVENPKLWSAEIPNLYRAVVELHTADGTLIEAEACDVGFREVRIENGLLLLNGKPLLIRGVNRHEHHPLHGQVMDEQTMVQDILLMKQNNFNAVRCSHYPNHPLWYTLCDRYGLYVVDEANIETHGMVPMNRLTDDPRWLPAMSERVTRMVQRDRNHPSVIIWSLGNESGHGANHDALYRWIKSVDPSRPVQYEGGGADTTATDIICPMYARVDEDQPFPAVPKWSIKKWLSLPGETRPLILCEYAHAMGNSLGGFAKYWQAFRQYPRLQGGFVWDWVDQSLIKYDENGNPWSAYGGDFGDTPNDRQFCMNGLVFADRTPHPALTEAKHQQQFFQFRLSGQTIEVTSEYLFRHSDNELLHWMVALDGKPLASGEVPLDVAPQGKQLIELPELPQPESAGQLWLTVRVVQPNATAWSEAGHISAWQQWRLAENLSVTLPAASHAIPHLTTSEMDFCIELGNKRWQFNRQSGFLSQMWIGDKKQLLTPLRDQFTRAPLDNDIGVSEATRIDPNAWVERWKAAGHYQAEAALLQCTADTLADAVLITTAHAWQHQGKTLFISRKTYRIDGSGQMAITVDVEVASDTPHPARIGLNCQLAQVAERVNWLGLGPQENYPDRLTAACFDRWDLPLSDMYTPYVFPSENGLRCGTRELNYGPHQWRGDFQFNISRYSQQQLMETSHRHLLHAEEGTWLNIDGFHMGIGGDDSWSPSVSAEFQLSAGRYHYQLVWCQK

Binder: GALFLGFLGAAGSTMGAWSQPKSKRKV [MPG peptide vector]
- binding result [1]: no binding

B1: Pep-2 (KETWWETWWTEWSQPKKKRKV-cya) (peptide)
peptide: Ac-KETWWETWWTEWSQPKKKRKV-Cysteamide
notes: Synthetic 21-residue peptide: Trp-rich hydrophobic domain, Ser-Gln-Pro spacer, and a Lys-rich domain derived from the SV40 large T antigen NLS; also called Pep-2-cya; peptide vector
- Kd [2]: ~120 nM
- concentration of partner at saturation [2]: ~200 nM
- saturating quenching of intrinsic tryptophan fluorescence [2]: 36%
- Kd [3]: ~120 nM
- concentration of partner at saturation [3]: ~50 nM
- saturating quenching of intrinsic tryptophan fluorescence [3]: 65%
- Kd [4]: ~120 nM
- concentration of partner at saturation [4]: ~200 nM
- saturating quenching of intrinsic tryptophan fluorescence [4]: 36%
- blue shift of the fluorescence emission maximum [5]: 10 nm
- blue shift of the fluorescence emission maximum [6]: 10 nm
- blue shift of the fluorescence emission maximum [7]: 10 nm
- binding result [1]: no binding (tested: up to a millimolar concentration)
